{"source": "patent US20220356246A1", "about": "(published 2022)", "binders": {"B1": {"name": "anti-ROR1 antibody clone G3 (antibody, V domains shown)", "VH": "QVQLQQWGAGLLKPSETLSLTCAVYGGSFSGYYWSWIRQPPGKGLEWIGEINHSGSTSYNPSLKSRVTISVDTSKNQFSLKLSSVTAADTAVYYCARGHSSGWYRRYFDLWGRGTLVTVSS", "VL": "EIVLTQSPATLSLSPGERATLSCRASQSVSSYLAWYQQKPGQAPRLLIYDASNRATGIPAKFSGSGSGTDFTLTISSLEPEDFAVYYCQQRSNWPPTFGGGTKVEIK"}, "B2": {"name": "anti-ROR1 antibody clone G6 (antibody, V domains shown)", "VH": "EVQLVESGGGVVQPGGSLRLSCAASGFTFDDYAMHWVRQAPGKGLEWVSLISGDGGSTYYADSVKGRFTISRDNAKNSLYLQMNSLRAEDTAVYYCARDNWNDVYYYYGMDVWGQGTTVTVSS", "VL": "DIQLTQSPSSLSASIGDTVTISCQASRDISDYLNWYQHKPGKAPKLLIYDASNLATGVPSRFSGSGSGTDFTLTIKSLQPEDVATYFCQQDDLLPLTFGGGTKVDIK"}, "B3": {"name": "anti-ROR1 antibody clone C3 (antibody, V domains shown)", "VH": "QVQLQESGPGLVKPSETLSLTCTVSGGSISSYYWSWIRQLPGKGLEWIGYMHYSGSTSYNPSLKGRLTISVDTSTNQFSLKLGSVTAADTAVYYCARYYYHDSSGYYSYFDYWGQGTLVTVSS", "VL": "EIVLTQSPGTLSLSPGERATLSCRASQSVSSYLAWYQQKAGQAPRLLIYDASNRASGIPARFSGSGSGTDFTLTISSLEPEDFAVYYCQQRSNWPPTFGGGTKVEIK"}}, "data": [{"biological_target": "Human ROR1-ECD (human, UniProt Q01973 30-406)", "sequence (Q01973 30-406)": "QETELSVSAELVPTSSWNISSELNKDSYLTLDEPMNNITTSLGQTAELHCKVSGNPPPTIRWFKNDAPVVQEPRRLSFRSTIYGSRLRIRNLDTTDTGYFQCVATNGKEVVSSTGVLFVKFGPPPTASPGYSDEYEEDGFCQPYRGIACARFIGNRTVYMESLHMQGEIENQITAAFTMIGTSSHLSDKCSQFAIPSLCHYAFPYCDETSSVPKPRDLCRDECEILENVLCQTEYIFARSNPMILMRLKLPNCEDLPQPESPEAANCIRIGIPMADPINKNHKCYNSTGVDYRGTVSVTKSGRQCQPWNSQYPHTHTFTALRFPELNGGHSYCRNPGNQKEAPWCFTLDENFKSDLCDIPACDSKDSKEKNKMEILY", "experiment": "BLI (Fortebio)", "units": {"Kd": "nM"}, "values": [{"binder": "B1", "Kd": 4.48}, {"binder": "B2", "Kd": 43.7}, {"binder": "B3", "Kd": 3.25}]}]}
